# Measurements from patent US20190375795A1 (CGTX PEPTIDE DEVELOPMENT, published 2019).
# How the values were obtained:
# [1] = biological target: human Kv1.3 (hKv1.3) channel (human, UniProt P22001 1-575); assay: cell-based or functional assay
# [2] = biological target: T1, Kv1.5 (UniProt P22460 1-613); assay: planar patch clamp (Port-A-Patch), channel expressed in cells
# T1 construct: whole, on cells
# T1 sequence (P22460 whole entry): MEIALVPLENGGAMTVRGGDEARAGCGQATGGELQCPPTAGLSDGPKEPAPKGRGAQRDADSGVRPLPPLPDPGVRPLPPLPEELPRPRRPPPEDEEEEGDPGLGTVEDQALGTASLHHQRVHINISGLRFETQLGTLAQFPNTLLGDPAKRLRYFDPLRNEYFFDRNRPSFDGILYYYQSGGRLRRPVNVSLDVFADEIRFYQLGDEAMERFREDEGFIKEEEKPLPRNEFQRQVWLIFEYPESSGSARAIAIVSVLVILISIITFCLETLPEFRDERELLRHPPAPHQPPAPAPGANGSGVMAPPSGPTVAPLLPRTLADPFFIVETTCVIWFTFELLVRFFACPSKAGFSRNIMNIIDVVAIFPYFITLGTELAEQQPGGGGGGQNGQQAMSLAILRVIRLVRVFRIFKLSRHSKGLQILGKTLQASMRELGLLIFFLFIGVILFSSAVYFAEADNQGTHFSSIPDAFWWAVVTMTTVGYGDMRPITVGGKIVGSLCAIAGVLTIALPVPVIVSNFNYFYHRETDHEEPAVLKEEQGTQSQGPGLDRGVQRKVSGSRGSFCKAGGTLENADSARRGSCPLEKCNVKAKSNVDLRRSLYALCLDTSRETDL
# human Kv1.3 (hKv1.3) channel, sequence (P22001 whole entry): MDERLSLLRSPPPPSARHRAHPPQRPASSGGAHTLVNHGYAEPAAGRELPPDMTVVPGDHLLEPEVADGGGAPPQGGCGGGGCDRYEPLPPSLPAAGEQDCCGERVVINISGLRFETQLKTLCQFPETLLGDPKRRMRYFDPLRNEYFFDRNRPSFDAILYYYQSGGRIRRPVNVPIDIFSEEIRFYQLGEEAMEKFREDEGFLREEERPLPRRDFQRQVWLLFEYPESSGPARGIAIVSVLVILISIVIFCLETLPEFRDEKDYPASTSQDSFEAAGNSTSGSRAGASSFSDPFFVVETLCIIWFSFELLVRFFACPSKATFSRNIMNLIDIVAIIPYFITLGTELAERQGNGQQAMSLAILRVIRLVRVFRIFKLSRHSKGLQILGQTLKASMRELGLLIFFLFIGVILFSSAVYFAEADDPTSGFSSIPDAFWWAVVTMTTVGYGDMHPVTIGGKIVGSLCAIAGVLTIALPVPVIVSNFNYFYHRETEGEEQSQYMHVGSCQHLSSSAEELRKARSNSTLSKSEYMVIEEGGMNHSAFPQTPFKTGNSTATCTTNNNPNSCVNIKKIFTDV
binder,measurement,setting,value
ASCRTPKDCADPCRKETGCPYGKCMNRKCKCNRC (also called toxin HsTx 1) [HsTx 1],selectivity for Kv1.3 vs. Kv1.1 (patch clamp IC50s),[1],~450 fold
same,binding result,[2],no binding
